In patent publication US20220177594A1 (ZOETIS SERVICES, published 2022):

biological target: T1, ANTIBODY EXPRESSION CONTROL; test: SPR Biacore, expression control
T1 construct: also called mouse anti-canine antibody (capture reagent of the expression control ELISA)
Description: The affinity with which candidate mAbs bind canine, feline, and human (SEQ ID NO: 122; Human_OSMR) (R&D Systems, Minneapolis, Minn.) OSMR was determined using surface plasmon resonance (SPR) on a Biacore system (Biacore Life Sciences (GE Healthcare), Uppsala, Sweden). To avoid affinity differences associated with differential surface preparation that can occur when immobilizing antibodies to surfaces; OSMR from each species was directly conjugated to individual surfaces. Immobilization was obtained by amine coupling 5 μg/mL OSMR using N-hydroxysuccinimide (NHS)/1-Ethyl-3-(3-dimethylaminopropyl) carbodiimide (EDC) chemistry. Chips were quenched with ethanolamine and the affinity with which all candidate mAbs bound to the immobilized OSMR was evaluated. All curves were fit to a 1:1 model. […] Results for affinity measurements are described herein.
Data from an ELISA represents an equilibrium state where the antibody is allowed to associate and dissociate over a one-hour period resulting in steady-state binding. Using Biacore, the target protein is immobilized to a surface and the antibody is passed over this surface in a mobile liquid phase. Protein-protein interaction is determined from changes in the surface resonance which allows for calculation of association (kₐ), disassociation (kd), and affinity constant (KD). While not wishing to be bound to one hypothesis we present data from ELISA and Biacore experiments, using the same preparation of antibody, that may result in agreement between the two methods with respect to binding but also may show contradictory results due to the nature of the binding kinetics and different assay dynamics. The data presented in Table A (in combination with experimental results from yeast display mutational analysis in Example 21) allow for the definition of a structure:function relationship to be defined between the anti-OSMR antibodies described here and their ability to bind and block IL-31 and OSM-mediated signaling through the OSMR receptor.

Row | Binder | Kd [nM] | koff [s⁻¹] | kon [M⁻¹ s⁻¹]
1 | Mu_19F07_VH (SEQ ID NO: 47)_Y33A (antibody, V domains shown) VH: EVKLVESEGGLVQPGSSMKLSCTASGFTFSDYAMAWVRQVPEKGLEWVANINYDGSSTYYLDSLKSRFIISRDNAKNILYLQMSSLKSEDTATYYCARGLTWDFDVWGTGTTVTVSS VL: DIVMTQSHKFMSPSVGDRVSITCKASQDVDTAVAWYQQKPGQSPKLLIYLASTRHTGVPDRFTGSGSGTDFTLTISNVQSEDLADYFCQQYSRFPLTFGAGTKLELKR | 0.202 | 6.08e-05 | 301000
2 | Mu_19F07_VL (SEQ ID NO: 49)_T53A (antibody, V domains shown) VH: EVKLVESEGGLVQPGSSMKLSCTASGFTFSDYYMAWVRQVPEKGLEWVANINYDGSSTYYLDSLKSRFIISRDNAKNILYLQMSSLKSEDTATYYCARGLTWDFDVWGTGTTVTVSS VL: DIVMTQSHKFMSPSVGDRVSITCKASQDVDTAVAWYQQKPGQSPKLLIYLASARHTGVPDRFTGSGSGTDFTLTISNVQSEDLADYFCQQYSRFPLTFGAGTKLELKR | 0.123 | 3.75e-05 | 305000
3 | Mu_19F07_VH (SEQ ID NO: 47)_S56A (antibody, V domains shown) VH: EVKLVESEGGLVQPGSSMKLSCTASGFTFSDYYMAWVRQVPEKGLEWVANINYDGASTYYLDSLKSRFIISRDNAKNILYLQMSSLKSEDTATYYCARGLTWDFDVWGTGTTVTVSS VL: DIVMTQSHKFMSPSVGDRVSITCKASQDVDTAVAWYQQKPGQSPKLLIYLASTRHTGVPDRFTGSGSGTDFTLTISNVQSEDLADYFCQQYSRFPLTFGAGTKLELKR | 4.08 | 0.000646 | 159000
4 | Mu_19F07_VH (SEQ ID NO: 47)_F104A (antibody, V domains shown) VH: EVKLVESEGGLVQPGSSMKLSCTASGFTFSDYYMAWVRQVPEKGLEWVANINYDGSSTYYLDSLKSRFIISRDNAKNILYLQMSSLKSEDTATYYCARGLTWDADVWGTGTTVTVSS VL: DIVMTQSHKFMSPSVGDRVSITCKASQDVDTAVAWYQQKPGQSPKLLIYLASTRHTGVPDRFTGSGSGTDFTLTISNVQSEDLADYFCQQYSRFPLTFGAGTKLELKR | 0.156 | 5.09e-05 | 326000
5 | Mu_19F07_VH (SEQ ID NO: 47)_Y60A (antibody, V domains shown) VH: EVKLVESEGGLVQPGSSMKLSCTASGFTFSDYYMAWVRQVPEKGLEWVANINYDGSSTYALDSLKSRFIISRDNAKNILYLQMSSLKSEDTATYYCARGLTWDFDVWGTGTTVTVSS VL: DIVMTQSHKFMSPSVGDRVSITCKASQDVDTAVAWYQQKPGQSPKLLIYLASTRHTGVPDRFTGSGSGTDFTLTISNVQSEDLADYFCQQYSRFPLTFGAGTKLELKR | 4.06 | 0.00061 | 150000
6 | Mu_19F07_VL (SEQ ID NO: 49)_Q89A (antibody, V domains shown) VH: EVKLVESEGGLVQPGSSMKLSCTASGFTFSDYYMAWVRQVPEKGLEWVANINYDGSSTYYLDSLKSRFIISRDNAKNILYLQMSSLKSEDTATYYCARGLTWDFDVWGTGTTVTVSS VL: DIVMTQSHKFMSPSVGDRVSITCKASQDVDTAVAWYQQKPGQSPKLLIYLASTRHTGVPDRFTGSGSGTDFTLTISNVQSEDLADYFCAQYSRFPLTFGAGTKLELKR | 0.135 | 4.3e-05 | 319000
7 | Mu_19F07_VL (SEQ ID NO: 49)_Q90A (antibody, V domains shown) VH: EVKLVESEGGLVQPGSSMKLSCTASGFTFSDYYMAWVRQVPEKGLEWVANINYDGSSTYYLDSLKSRFIISRDNAKNILYLQMSSLKSEDTATYYCARGLTWDFDVWGTGTTVTVSS VL: DIVMTQSHKFMSPSVGDRVSITCKASQDVDTAVAWYQQKPGQSPKLLIYLASTRHTGVPDRFTGSGSGTDFTLTISNVQSEDLADYFCQAYSRFPLTFGAGTKLELKR | 0.161 | 5.29e-05 | 329000
8 | Mu_19F07_VH (SEQ ID NO: 47)_Y59A (antibody, V domains shown) VH: EVKLVESEGGLVQPGSSMKLSCTASGFTFSDYYMAWVRQVPEKGLEWVANINYDGSSTAYLDSLKSRFIISRDNAKNILYLQMSSLKSEDTATYYCARGLTWDFDVWGTGTTVTVSS VL: DIVMTQSHKFMSPSVGDRVSITCKASQDVDTAVAWYQQKPGQSPKLLIYLASTRHTGVPDRFTGSGSGTDFTLTISNVQSEDLADYFCQQYSRFPLTFGAGTKLELKR | 0.359 | 0.000116 | 324000
9 | Mu_19F07_VH (SEQ ID NO: 47)_W102A (antibody, V domains shown) VH: EVKLVESEGGLVQPGSSMKLSCTASGFTFSDYYMAWVRQVPEKGLEWVANINYDGSSTYYLDSLKSRFIISRDNAKNILYLQMSSLKSEDTATYYCARGLTADFDVWGTGTTVTVSS VL: DIVMTQSHKFMSPSVGDRVSITCKASQDVDTAVAWYQQKPGQSPKLLIYLASTRHTGVPDRFTGSGSGTDFTLTISNVQSEDLADYFCQQYSRFPLTFGAGTKLELKR | 0.139 | 4.35e-05 | 312000
10 | Mu_19F07_VL (SEQ ID NO: 49)_L50A (antibody, V domains shown) VH: EVKLVESEGGLVQPGSSMKLSCTASGFTFSDYYMAWVRQVPEKGLEWVANINYDGSSTYYLDSLKSRFIISRDNAKNILYLQMSSLKSEDTATYYCARGLTWDFDVWGTGTTVTVSS VL: DIVMTQSHKFMSPSVGDRVSITCKASQDVDTAVAWYQQKPGQSPKLLIYAASTRHTGVPDRFTGSGSGTDFTLTISNVQSEDLADYFCQQYSRFPLTFGAGTKLELKR | 0.164 | 4.8e-05 | 293000
11 | Mu_19F07_VL (SEQ ID NO: 49)_F94A (antibody, V domains shown) VH: EVKLVESEGGLVQPGSSMKLSCTASGFTFSDYYMAWVRQVPEKGLEWVANINYDGSSTYYLDSLKSRFIISRDNAKNILYLQMSSLKSEDTATYYCARGLTWDFDVWGTGTTVTVSS VL: DIVMTQSHKFMSPSVGDRVSITCKASQDVDTAVAWYQQKPGQSPKLLIYLASTRHTGVPDRFTGSGSGTDFTLTISNVQSEDLADYFCQQYSRAPLTFGAGTKLELKR | 0.16 | 5.35e-05 | 335000
12 | Mu_10F07_VH (SEQ ID NO: 39)_I101A (antibody, V domains shown) VH: DVKLVESGEGLVKPGGSLKLSCAASGFTFSSYAMSWVRQTPEKRLEWVTYISSGGDYFYYADTVKGRFTISRDNARNTLYLQMSSLKSEDTAMYYCTRDPATGTFAYWGQGTLVTVSA VL: DIQMTQTTSSLSASLGDRVTISCRASQDITNYLNWYQQKPDGTVKLLIYYTSTLHSGVPSRFSGSGSGTDFSLTISNLEQEDIATYFCQQGHMLPWTFGGGTKLEIKR | 0.445 | 4.49e-05 | 101000
13 | Mu_10F07_VL (SEQ ID NO: 41)_T53A (antibody, V domains shown) VH: DVKLVESGEGLVKPGGSLKLSCAASGFTFSSYAMSWVRQTPEKRLEWVTYISSGGDYFYYADTVKGRFTISRDNARNTLYLQMSSLKSEDTAMYYCTRDPITGTFAYWGQGTLVTVSA VL: DIQMTQTTSSLSASLGDRVTISCRASQDITNYLNWYQQKPDGTVKLLIYYTSALHSGVPSRFSGSGSGTDFSLTISNLEQEDIATYFCQQGHMLPWTFGGGTKLEIKR | 2.07 | 0.000275 | 132000
14 | Mu_10F07_VL (SEQ ID NO: 41)_W96A (antibody, V domains shown) VH: DVKLVESGEGLVKPGGSLKLSCAASGFTFSSYAMSWVRQTPEKRLEWVTYISSGGDYFYYADTVKGRFTISRDNARNTLYLQMSSLKSEDTAMYYCTRDPITGTFAYWGQGTLVTVSA VL: DIQMTQTTSSLSASLGDRVTISCRASQDITNYLNWYQQKPDGTVKLLIYYTSTLHSGVPSRFSGSGSGTDFSLTISNLEQEDIATYFCQQGHMLPATFGGGTKLEIKR | 0.884 | 9.49e-05 | 107000
15 | Mu_10F07_VL (SEQ ID NO: 41)_L33A (antibody, V domains shown) VH: DVKLVESGEGLVKPGGSLKLSCAASGFTFSSYAMSWVRQTPEKRLEWVTYISSGGDYFYYADTVKGRFTISRDNARNTLYLQMSSLKSEDTAMYYCTRDPITGTFAYWGQGTLVTVSA VL: DIQMTQTTSSLSASLGDRVTISCRASQDITNYANWYQQKPDGTVKLLIYYTSTLHSGVPSRFSGSGSGTDFSLTISNLEQEDIATYFCQQGHMLPWTFGGGTKLEIKR | 0.812 | 8.43e-05 | 104000
16 | Mu_10F07_VL (SEQ ID NO: 41)_T97A (antibody, V domains shown) VH: DVKLVESGEGLVKPGGSLKLSCAASGFTFSSYAMSWVRQTPEKRLEWVTYISSGGDYFYYADTVKGRFTISRDNARNTLYLQMSSLKSEDTAMYYCTRDPITGTFAYWGQGTLVTVSA VL: DIQMTQTTSSLSASLGDRVTISCRASQDITNYLNWYQQKPDGTVKLLIYYTSTLHSGVPSRFSGSGSGTDFSLTISNLEQEDIATYFCQQGHMLPWAFGGGTKLEIKR | 0.805 | 8.07e-05 | 100000
17 | Mu_10F07_VL (SEQ ID NO: 41)_Y50A (antibody, V domains shown) VH: DVKLVESGEGLVKPGGSLKLSCAASGFTFSSYAMSWVRQTPEKRLEWVTYISSGGDYFYYADTVKGRFTISRDNARNTLYLQMSSLKSEDTAMYYCTRDPITGTFAYWGQGTLVTVSA VL: DIQMTQTTSSLSASLGDRVTISCRASQDITNYLNWYQQKPDGTVKLLIYATSTLHSGVPSRFSGSGSGTDFSLTISNLEQEDIATYFCQQGHMLPWTFGGGTKLEIKR | 0.6 | 0.000105 | 174000
18 | Mu_10F07_VH (SEQ ID NO: 39)_Y107A (antibody, V domains shown) VH: DVKLVESGEGLVKPGGSLKLSCAASGFTFSSYAMSWVRQTPEKRLEWVTYISSGGDYFYYADTVKGRFTISRDNARNTLYLQMSSLKSEDTAMYYCTRDPITGTFAAWGQGTLVTVSA VL: DIQMTQTTSSLSASLGDRVTISCRASQDITNYLNWYQQKPDGTVKLLIYYTSTLHSGVPSRFSGSGSGTDFSLTISNLEQEDIATYFCQQGHMLPWTFGGGTKLEIKR | 0.446 | 4.44e-05 | 99500
